Measurements published in paper PMC8429728 (Nature Communications, 2021).

Biological target: T1, M1-linked tetra-ubiquitin (UniProt P0CG48 1-76; P0CG48 1-76; P0CG48 1-76; P0CG48 1-76, M1-linked)
T1 construct: ubiquitin, first of four head-to-tail repeats; ubiquitin, second repeat; ubiquitin, third repeat; ubiquitin, fourth repeat; also called M1-linked chains
Experiment: pull-down; GST fusion held on glutathione agarose, incubated with 0.5 μg of an individual tetra-ubiquitin chain, 2 h at 4 °C; 150 mM NaCl, 50 mM Tris pH 7.5, 0.1% IGEPAL, 5 mM DTT, 0.25 mg/mL BSA; immunoblotted for GST and ubiquitin
Settings: both partners purified

binding result: binds
B1: GST-TNK1-UBA (domain or fragment, human, UniProt Q13470 585-666, looked up)
chain: LLSDPELQRKIMEVELSVHGVTHQECQTALGATGGDVVSAIRNLKVDQLFHLSSRSRADCWRILEHYQWDLSAASRYVLARP
notes: TNK1, human, amino acid 585 to 666 (UBA domain), in pGEX-6P-1; also called GST-tagged recombinant TNK1 UBA; source: E. coli BL21; held on glutathione agarose and washed (pull-down); lysate loaded on anti-GST biosensors (BLI); not shown: GST, N-terminal, kept
